B1: FUT8 (parent)
chain: NWRYATGGWETVFRPVSETCTDRS

Variants of: B1
Assay: protein stability index of a GFP-peptide fusion (GPS, HEK-293T) (PSI 1-6); higher = more stable
Conditions: c terminus: a fixed tail appended
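Also: lentivirally expressed fusions sorted by FACS into six bins by GFP to DsRed ratio, PSI derived from sequencing read proportions per bin multiplied by bin number.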

Variant	protein stability index
NWRYATGGWETVFRPVSVTCTDRS [E18V]	2.76
NWRYATGGWETVFRPVSQTCTDRS [E18Q]	1.54
NWRYATGGWETVFRPVSITCTDRS [E18I]	2.05
NWRYATGGWETVFRPVSLTCTDRS [E18L]	1.97
NWRYATGGWETVFRPVSMTCTDRS [E18M]	1.4
NWRYATGGWETVFRPVSFTCTDRS [E18F]	2.36
NWRYATGGWETVFRPVSWTCTDRS [E18W]	2.45
NWRYATGGWETVFRPVSNTCTDRS [E18N]	1.75
NWRYATGGWETVFRPVSHTCTDRS [E18H]	1.51
NWRYATGGWETVFRPVSPTCTDRS [E18P]	2.06
NWRYATGGWETVFRPVSKTCTDRS [E18K]	2.27
NWRYATGGWETVFRPVSDTCTDRS [E18D]	2.28
NWRYATGGWETVFRPVSTTCTDRS [E18T]	2.15
NWRYATGGWETVFRPVSYTCTDRS [E18Y]	2.18
NWRYATGGWETVFRPVSRTCTDRS [E18R]	1.8
NWRYATGGWETVFRPVSGTCTDRS [E18G]	1.41
NWRYATGGWEHVFRPVSETCTDRS [T11H]	1.69
NWRYATGGWECVFRPVSETCTDRS [T11C]	1.78
NWRYATGGWEPVFRPVSETCTDRS [T11P]	2
NWRYATGGWENVFRPVSETCTDRS [T11N]	1.9
NWRYATGGWEDVFRPVSETCTDRS [T11D]	2.2
NWRYATGGWEEVFRPVSETCTDRS [T11E]	2.86
NWRYATGGWEWVFRPVSETCTDRS [T11W]	1.98
NWRYATGGWERVFRPVSETCTDRS [T11R]	3.69

Variant	protein stability index
NWRYATGGWELVFRPVSETCTDRS [T11L]	2.12
NWRYATGGWEYVFRPVSETCTDRS [T11Y]	4.5
NWRYATGGWEGVFRPVSETCTDRS [T11G]	1.97
NWRYATGGWEKVFRPVSETCTDRS [T11K]	1.68
NWRYATGGWEFVFRPVSETCTDRS [T11F]	1.48
NWRYATGGWEVVFRPVSETCTDRS [T11V]	2.12
NWRYATGGWEQVFRPVSETCTDRS [T11Q]	2.15
NWRYATGGWEIVFRPVSETCTDRS [T11I]	3.25
NWRYATGGYETVFRPVSETCTDRS [W9Y]	2.32
NWRYATGGRETVFRPVSETCTDRS [W9R]	1.88
NWRYATGGIETVFRPVSETCTDRS [W9I]	2.22
NWRYATGGFETVFRPVSETCTDRS [W9F]	1.41
NWRYATGGHETVFRPVSETCTDRS [W9H]	2.73
NWRYATGGNETVFRPVSETCTDRS [W9N]	2.27
NWRYATGGPETVFRPVSETCTDRS [W9P]	2.95
NWRYATGGGETVFRPVSETCTDRS [W9G]	1.96
NWRYATGGQETVFRPVSETCTDRS [W9Q]	2.03
NWRYATGGMETVFRPVSETCTDRS [W9M]	1.72
NWRYATGGEETVFRPVSETCTDRS [W9E]	2.79
NWRYATGGTETVFRPVSETCTDRS [W9T]	1.55
NWRYATGGVETVFRPVSETCTDRS [W9V]	2.31
NWRYATGGKETVFRPVSETCTDRS [W9K]	2.06
NWRYATGGDETVFRPVSETCTDRS [W9D]	2.33
NWRYATGGLETVFRPVSETCTDRS [W9L]	2.29

Variant	protein stability index
NWRYATGGSETVFRPVSETCTDRS [W9S]	2.03
NWRYATGGWETVFRPVSETPTDRS [C20P]	1.81
NWRYATGGWETVFRPVSETLTDRS [C20L]	1.44
NWRYATGGWETVFRPVSETNTDRS [C20N]	2.6
NWRYATGGWETVFRPVSETITDRS [C20I]	1.63
NWRYATGGWETVFRPVSETHTDRS [C20H]	4.01
NWRYATGGWETVFRPVSETFTDRS [C20F]	1.84
NWRYATGGWETVFRPVSETDTDRS [C20D]	2.3
NWRYATGGWETVFRPVSETATDRS [C20A]	3.39
NWRYATGGWETVFRPVSETMTDRS [C20M]	2.33
NWRYATGQWETVFRPVSETCTDRS [G8Q]	1.98
NWRYATGTWETVFRPVSETCTDRS [G8T]	2.47
NWRYATGRWETVFRPVSETCTDRS [G8R]	1.41
NWRYATGWWETVFRPVSETCTDRS [G8W]	2.51
NWRYATGYWETVFRPVSETCTDRS [G8Y]	1.89
NWRYATGPWETVFRPVSETCTDRS [G8P]	1.74
NWRYATGSWETVFRPVSETCTDRS [G8S]	2.4
NWRYATGGWETKFRPVSETCTDRS [V12K]	3.27
NWRYATGGWETEFRPVSETCTDRS [V12E]	2.23
NWRYATGGWETQFRPVSETCTDRS [V12Q]	2.56
NWRYATGGWETGFRPVSETCTDRS [V12G]	1.09
NWRYATGGWETFFRPVSETCTDRS [V12F]	1.45
NWRYATGGWETYFRPVSETCTDRS [V12Y]	2.73
NWRYATGGWETWFRPVSETCTDRS [V12W]	1.26

Variant	protein stability index
NWRYATGGWETNFRPVSETCTDRS [V12N]	1.97
NWRYATGGWETHFRPVSETCTDRS [V12H]	2.23
NWRYATGGWETTFRPVSETCTDRS [V12T]	1.69
NWRYATGGWETPFRPVSETCTDRS [V12P]	2.85
NWRYATGGWETCFRPVSETCTDRS [V12C]	2
NWRYATGGWETMFRPVSETCTDRS [V12M]	2.48
NWRYATGGWETSFRPVSETCTDRS [V12S]	1.97
NWRYATGGWETRFRPVSETCTDRS [V12R]	2.08
NWRYATGGWETAFRPVSETCTDRS [V12A]	2.46
NWRYATGGWETIFRPVSETCTDRS [V12I]	2.57
NWRYATGGWETVFRPVWETCTDRS [S17W]	2.42
NWRYATGGWETVFRPVCETCTDRS [S17C]	3.15
NWRYATGGWETVFRPVMETCTDRS [S17M]	1.28
NWRYATGGWETVFRPVAETCTDRS [S17A]	2.34
NWRYATGGWETVFRPVTETCTDRS [S17T]	1.64
NWRYATGGWETVFRPVGETCTDRS [S17G]	3.4
NWRYATGGWETVFRPVYETCTDRS [S17Y]	1.53
NWRYATGGWETVFRPVRETCTDRS [S17R]	1.88
NWRYATGGWETVFRPVQETCTDRS [S17Q]	2.67
NWRYATGGWETVFRPVIETCTDRS [S17I]	1.28
NWRYATGGWETVFRPVDETCTDRS [S17D]	2.33
NWRYATGGWETVFRPVHETCTDRS [S17H]	1.85
NWRYATGGWETVFRPVNETCTDRS [S17N]	2.29
NWRYATGGWETVFRPVFETCTDRS [S17F]	2.77

Variant	protein stability index
NWRYATGGWETVERPVSETCTDRS [F13E]	3.2
NWRYATGGWETVIRPVSETCTDRS [F13I]	1.66
NWRYATGGWETVKRPVSETCTDRS [F13K]	3
NWRYATGGWETVTRPVSETCTDRS [F13T]	2.28
NWRYATGGWETVWRPVSETCTDRS [F13W]	3.09
NWRYATGGWETVRRPVSETCTDRS [F13R]	2.69
NWRYATGGWETVNRPVSETCTDRS [F13N]	2.78
NWRYATGGWETVQRPVSETCTDRS [F13Q]	2.52
NWRYATGGWETVCRPVSETCTDRS [F13C]	2.15
NWRYATGGWETVVRPVSETCTDRS [F13V]	1.64
NWRYATGGWETVARPVSETCTDRS [F13A]	3.91
NWRYATGGWETVPRPVSETCTDRS [F13P]	3.54
NWRYATGGWETVYRPVSETCTDRS [F13Y]	1.55
NWRYATGGWETVHRPVSETCTDRS [F13H]	2.99
NWRYATGGWETVDRPVSETCTDRS [F13D]	3.66
NWRYATGGWETVMRPVSETCTDRS [F13M]	2.28
NWRYATGGWETVLRPVSETCTDRS [F13L]	2.28
NWRYATGGWETVFRPISETCTDRS [V16I]	2.37
NWRYATGGWETVFRPPSETCTDRS [V16P]	1.97
NWRYATGGWETVFRPDSETCTDRS [V16D]	1.81
NWRYATGGWETVFRPYSETCTDRS [V16Y]	1.96
NWRYATGGWETVFRPASETCTDRS [V16A]	1.66
NWRYATGGWETVFRPMSETCTDRS [V16M]	2.47
NWRYATGGWETVFRPLSETCTDRS [V16L]	1.57

Variant	protein stability index
NWRYATGGWETVFRPFSETCTDRS [V16F]	1.23
NWRYATGGWETVFRPQSETCTDRS [V16Q]	2.28
NWRYATGGWETVFRPWSETCTDRS [V16W]	2.01
NWRYATGGWETVFRPESETCTDRS [V16E]	1.59
NWRYATGGWETVFRPTSETCTDRS [V16T]	1.61
NWRYATGGWETVFRPKSETCTDRS [V16K]	2.73
NWRYATGGWETVFRPRSETCTDRS [V16R]	1.19
NWRYATGGWETVFRPNSETCTDRS [V16N]	1.78
NWRYATGGWETVFRPHSETCTDRS [V16H]	2.56
NWRYATGGWETVFRPGSETCTDRS [V16G]	3.55
NWRYATGGWETVFRPCSETCTDRS [V16C]	1.06
NWRYATGGWRTVFRPVSETCTDRS [E10R]	2.49
NWRYATGGWKTVFRPVSETCTDRS [E10K]	3.86
NWRYATGGWPTVFRPVSETCTDRS [E10P]	1.18
NWRYATGGWHTVFRPVSETCTDRS [E10H]	2.21
NWRYATGGWYTVFRPVSETCTDRS [E10Y]	2.52
NWRYATGGWSTVFRPVSETCTDRS [E10S]	1.86
NWRYATGGWTTVFRPVSETCTDRS [E10T]	1.63
NWRYATGGWFTVFRPVSETCTDRS [E10F]	3.97
NWRYATGGWQTVFRPVSETCTDRS [E10Q]	1.2
NWRYATGGWMTVFRPVSETCTDRS [E10M]	1.73
NWRYATGGWITVFRPVSETCTDRS [E10I]	3.19
NWRYATGGWNTVFRPVSETCTDRS [E10N]	1.86
NWRYATGGWVTVFRPVSETCTDRS [E10V]	1.02

Variant	protein stability index
NWRYATGGWDTVFRPVSETCTDRS [E10D]	1.8
NWRYATGGWETVFRYVSETCTDRS [P15Y]	1.27
NWRYATGGWETVFRTVSETCTDRS [P15T]	1.82
NWRYATGGWETVFRLVSETCTDRS [P15L]	2.1
NWRYATGGWETVFRWVSETCTDRS [P15W]	1.98
NWRYATGGWETVFRDVSETCTDRS [P15D]	3.23
NWRYATGGWETVFRRVSETCTDRS [P15R]	1.68
NWRYATGGWETVFRSVSETCTDRS [P15S]	3.98
NWRYATGGWETVFRIVSETCTDRS [P15I]	2.35
NWRYATGGWETVFRKVSETCTDRS [P15K]	2.03
NWRYATGGWETVFRNVSETCTDRS [P15N]	1.95
NWRYATGGWETVFRQVSETCTDRS [P15Q]	2.43
NWRYATGGWETVFRGVSETCTDRS [P15G]	2.05
NWRYATGGWETVFFPVSETCTDRS [R14F]	1.29
NWRYATGGWETVFNPVSETCTDRS [R14N]	3.41
NWRYATGGWETVFWPVSETCTDRS [R14W]	1.6
NWRYATGGWETVFKPVSETCTDRS [R14K]	1.7
NWRYATGGWETVFGPVSETCTDRS [R14G]	1.57
NWRYATGGWETVFPPVSETCTDRS [R14P]	2.69
NWRYATGGWETVFVPVSETCTDRS [R14V]	1.55
NWRYATGGWETVFTPVSETCTDRS [R14T]	3.45
NWRYATGGWETVFCPVSETCTDRS [R14C]	3.72
NWRYATGGWETVFHPVSETCTDRS [R14H]	1.12
NWRYATGGWETVFSPVSETCTDRS [R14S]	1.01

Variant	protein stability index
NWRYATGGWETVFDPVSETCTDRS [R14D]	2.4
NWRYATGGWETVFIPVSETCTDRS [R14I]	2.66
NWRYATGGWETVFQPVSETCTDRS [R14Q]	1.77
NWRYATGGWETVFMPVSETCTDRS [R14M]	1.7
NWRYATGGWETVFEPVSETCTDRS [R14E]	1.83
NWRYATGGWETVFYPVSETCTDRS [R14Y]	2.1
NWRYATGGWETVFRPVSELCTDRS [T19L]	2.3
NWRYATGGWETVFRPVSEKCTDRS [T19K]	1.84
NWRYATGGWETVFRPVSESCTDRS [T19S]	2.5
NWRYATGGWETVFRPVSEFCTDRS [T19F]	1.85
NWRYATGGWETVFRPVSEMCTDRS [T19M]	1.21
NWRYATGGWETVFRPVSENCTDRS [T19N]	2.09
NWRYATGGWETVFRPVSEQCTDRS [T19Q]	2.37
NWRYATGGWETVFRPVSERCTDRS [T19R]	2.24
NWRYATGGWETVFRPVSEPCTDRS [T19P]	1.83
NWRYATGGWETVFRPVSEECTDRS [T19E]	2.86
NWRYATGGWETVFRPVSEYCTDRS [T19Y]	3.12
NWRYATGGWETVFRPVSEGCTDRS [T19G]	2.72
NWRYATGGWETVFRPVSECCTDRS [T19C]	1.42
NWRYATGGWETVFRPVSEICTDRS [T19I]	2.22
